The source of these data is patent publication US20200332005A1 (I MAB, published 2020).

The target in test [1] is T1, recombinant human CD73 protein (human, UniProt P21589 27-547).
T1 construct: Bought (Novoprotein); also called recombinant CD73 protein; soluble CD73
T1 sequence: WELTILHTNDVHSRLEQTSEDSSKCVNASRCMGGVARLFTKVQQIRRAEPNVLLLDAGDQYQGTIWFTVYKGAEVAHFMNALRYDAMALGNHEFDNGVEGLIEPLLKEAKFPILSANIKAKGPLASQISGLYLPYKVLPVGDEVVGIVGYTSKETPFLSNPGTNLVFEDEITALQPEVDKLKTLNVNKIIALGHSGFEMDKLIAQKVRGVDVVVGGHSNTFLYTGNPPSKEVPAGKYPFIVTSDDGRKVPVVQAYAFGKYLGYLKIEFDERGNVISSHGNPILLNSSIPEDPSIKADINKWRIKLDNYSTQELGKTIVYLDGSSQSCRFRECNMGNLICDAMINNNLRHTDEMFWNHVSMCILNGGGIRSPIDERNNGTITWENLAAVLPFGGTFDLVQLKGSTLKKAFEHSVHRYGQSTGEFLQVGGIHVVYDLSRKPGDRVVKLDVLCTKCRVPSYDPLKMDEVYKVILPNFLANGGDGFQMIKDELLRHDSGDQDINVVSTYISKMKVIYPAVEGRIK
Nature of the test: SPR, Biacore T200, antibody captured by anti-human Fc IgG, antigen as analyte, 1:1 model, 25 C. The method, then:
For the binding assay, the Biacore T200 system was used through human antibody capture approach. The anti-human Fc lgG were immobilized on CMS sensor chip according to the manufactory's instruction. The test antibody was injected and captured by the immobilized anti-human Fc lgG. And then serial concentrations of antigen was individually injected, and the binding profile was recorded for each concentration antigen analyte, respectively. The assay system was regenerated by injection of 10 mM Glycine-HCl pH 1.5 for 30 seconds. The running buffer was HBS-EP+(10 mM HEPES, pH 7.4, 150 mM NaCl, 3 mM EDTA and 0.05% P20). The assay temperature was 25° C., and the association and dissociation time were 180 and 600 seconds, respectively.
(SPR reads the build-up and loss of mass on a sensor chip optically.)

In test [2] the target is T1, recombinant human CD73 protein. In words: cell-based or functional assay.
The target in test [3] is T2, human CD73 on the cell surface (human, UniProt P21589 27-549).
T2 sequence: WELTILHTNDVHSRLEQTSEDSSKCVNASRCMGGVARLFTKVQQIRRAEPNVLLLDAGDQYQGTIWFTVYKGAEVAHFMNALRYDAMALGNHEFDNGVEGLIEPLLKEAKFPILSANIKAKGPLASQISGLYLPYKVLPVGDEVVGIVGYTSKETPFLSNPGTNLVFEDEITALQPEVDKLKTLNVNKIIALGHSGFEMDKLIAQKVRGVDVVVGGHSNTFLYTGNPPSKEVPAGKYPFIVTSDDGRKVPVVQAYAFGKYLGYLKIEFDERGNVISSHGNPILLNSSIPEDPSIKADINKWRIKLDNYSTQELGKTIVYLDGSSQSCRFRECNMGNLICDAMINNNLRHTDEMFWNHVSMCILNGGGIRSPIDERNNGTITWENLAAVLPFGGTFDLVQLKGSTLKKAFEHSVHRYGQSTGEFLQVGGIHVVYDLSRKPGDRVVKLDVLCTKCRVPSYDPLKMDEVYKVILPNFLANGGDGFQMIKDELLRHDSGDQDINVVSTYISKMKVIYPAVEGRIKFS
Nature of the test: cell-based or functional assay.

Test [4] concerns the target T2, human CD73 on the cell surface. In words: flow cytometry on SK-OV-3 cells. The method, then: Binding was measured using an FACSCanto (Becton-Dickinson), and the results are presented in FIG. 8 (see also the table below).
Background: A flow cytometer gives signals particle by particle.

B1: Hu101-25 (antibody, V domains shown)
VH: EVQLQESGPGLVKPSETLSLTCAVSGYSISSGYYWNWIRQPPGKGLEWIGYINYGGSNGYNPSLKSRVTISRDTSKNQFSLKLSSVTAADTAVYYCARDYDAYYEALDDWGQGTTVTVSS
VL: EIVLSQSPATLSLSPGERATLSCRASSRVNYMHWYQQKPGQSPRPWISATSNLASGVPARFSGSGSGTSYTLTISSLEPEDFAVYYCQQWSSNPPTFGGGTKVEIK
notes: also called humanized anti-CD73 antibody Hu101-25
As for B1, in test [1], the Kd was found to be 0.747 nM, the koff is 5.51e-05 s⁻¹ and the kon came out at 73700 M⁻¹ s⁻¹. Besides, the “IC50 (nM), inhibition of recombinant CD73 enzymatic activity” value in test [2] was 4.72 nM. For the same molecule, the “IC50 (nM), inhibition of CD73 enzymatic activity on SK-OV-3 cells” value in test [3] amounted to 2.98 nM. Besides, in test [4], the EC50 was 2.38 nM.

The Kd is the concentration at which binding is half-saturated. The term koff denotes the rate constant with which the complex falls apart. A word on the kon: it is the rate constant with which the complex forms. The EC50 is the concentration needed to bring the measured effect to its halfway point. Higher therefore signals weaker potency.
